Measured values as given in PMC3774411, “Characterization of the Human Sigma-1 Receptor Chaperone Domain Structure and Binding Immunoglobulin Protein (BiP) Interactions*” (The Journal of Biological Chemistry, 2013).

Columns and labels:
[1] = target: T1, human binding immunoglobulin protein (BiP), residues 26-654 ("full length") (human, UniProt P11021 26-654); test: NMR titration; 15N-labelled S1R(cd) (~250 uM) in DPC micelles titrated with unlabelled BiP constructs; 1H,15N SOFAST-HMQC, cross-peak intensities and chemical shifts; 100 mM NaCl, 30 mM DPC, 5 mM 2-mercaptoethanol, 20 mM HEPES pH 6.5, 37 C; full-length BiP without and with 2.5 mM calcium chloride, NBD without calcium, SBD with 2.5 mM calcium; details: both partners purified
T1 construct: Constructs from Herwig Schueler, Karolinska Institutet; also called full-length BiP; source: E. coli BL21(DE3), purified (ammonium sulfate precipitation, nickel chromatography, Q-Sepharose, Superdex200)

[2] = target: T2, isolated nucleotide binding domain of human BiP (residues 26-410) (human, UniProt P11021 26-410); test: as above; details: both partners purified
T2 construct: also called NBD; BiP NBD; source: E. coli BL21(DE3), purified (ammonium sulfate precipitation, nickel chromatography, Q-Sepharose, Superdex200)
T2 sequence (P11021 26-410): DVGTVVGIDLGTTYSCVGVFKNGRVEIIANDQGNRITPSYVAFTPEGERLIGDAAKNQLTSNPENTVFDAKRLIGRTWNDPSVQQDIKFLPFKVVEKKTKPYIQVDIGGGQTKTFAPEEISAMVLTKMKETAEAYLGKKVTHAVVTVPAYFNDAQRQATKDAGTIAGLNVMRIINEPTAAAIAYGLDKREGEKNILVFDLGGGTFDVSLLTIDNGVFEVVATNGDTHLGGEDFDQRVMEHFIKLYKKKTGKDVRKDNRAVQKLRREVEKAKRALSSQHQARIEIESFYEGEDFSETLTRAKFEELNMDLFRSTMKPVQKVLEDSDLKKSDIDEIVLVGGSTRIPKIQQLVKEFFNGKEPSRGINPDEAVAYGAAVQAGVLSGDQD

T1 sequence (P11021 26-654): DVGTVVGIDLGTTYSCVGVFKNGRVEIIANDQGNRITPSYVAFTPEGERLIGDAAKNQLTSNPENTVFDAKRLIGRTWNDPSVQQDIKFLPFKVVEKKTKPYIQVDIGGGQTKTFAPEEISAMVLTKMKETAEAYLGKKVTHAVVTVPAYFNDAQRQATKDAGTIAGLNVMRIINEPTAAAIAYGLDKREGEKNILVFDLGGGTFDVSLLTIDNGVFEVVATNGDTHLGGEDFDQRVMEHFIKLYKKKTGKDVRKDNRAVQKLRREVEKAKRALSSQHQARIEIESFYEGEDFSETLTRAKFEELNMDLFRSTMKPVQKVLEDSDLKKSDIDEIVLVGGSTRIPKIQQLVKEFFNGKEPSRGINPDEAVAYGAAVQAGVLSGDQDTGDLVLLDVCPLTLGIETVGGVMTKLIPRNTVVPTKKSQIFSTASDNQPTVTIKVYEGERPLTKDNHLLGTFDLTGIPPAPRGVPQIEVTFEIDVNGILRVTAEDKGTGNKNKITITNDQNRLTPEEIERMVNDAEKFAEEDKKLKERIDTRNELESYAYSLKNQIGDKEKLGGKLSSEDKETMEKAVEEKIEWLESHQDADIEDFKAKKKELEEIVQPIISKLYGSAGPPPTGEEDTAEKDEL

binding result [1]: binds
binding result [2]: binds
B1: human sigma-1 receptor chaperone domain (residues 112-223) (domain or fragment, UniProt Q99720 112-223, looked up)
chain: GSRGHSGRYWAEISDTIISGTFHQWREGTTKSEVFYPGETVVHGPGEATAVEWGPNTWMVEYGRGVIPSTLAFALADTVFSTQDFLTLFYTLRSYARGLRLELTTYLFGQDP
notes: sigma-1 receptor (S1R), human, residues 112-223 (chaperone domain; 223 is the C-terminal residue); 15N-labelled for the titrations; No cleavage of the tag is described; also called S1R(cd); S1R chaperone domain
